Results taken from article PMC2911679.
Where two headings read alike, the source gives them in different places.

Tests used:
Assay in all cases: AlphaScreen or HTRF
[1] = target: His6-tagged GFP–SRY-HMG F67V (SRY residues 55–141) (human) (UniProt Q05066)
[2] = target: His6-tagged GFP–SRY-HMG M64T (SRY residues 55–141) (human) (UniProt Q05066)
[3] = target: His6-tagged GFP–SRY-HMG R76P (SRY residues 55–141) (human) (UniProt Q05066)
[4] = target: His6-tagged GFP–SRY-HMG R76P (SRY residues 55–141) (human) (UniProt Q05066); remark: listed apart in the source

A Kd [1] of 1.25 nM, a Kd [2] of 2.05 nM and a Kd [3] of 1.18 nM were found for “biotin-labelled calmodulin (CaM) (from UniProt P0DP23 1-149) (natural protein)” in this work. It also gave a Kd [4] of 2.05 nM.
